The source of these data is publication PMC7116892 (Science (New York, N.Y.), 2021).

Experiment [1] addresses T1, Dyh5 (γ-HC), ODA heavy chain (Tetrahymena thermophila, UniProt I7M6H4 1-4168). Nature of the experiment: cryo-EM structure.
Experiment [2] concerns the target T2, Dyh3 (α-HC), ODA heavy chain (Tetrahymena thermophila, UniProt Q22A67 1-4620). Nature of the experiment: cryo-EM structure.
Experiment [3] has as its target T1, Dyh5 (γ-HC), ODA heavy chain. Nature of the experiment: cross-linking.
Experiment [4] concerns the target T2, Dyh3 (α-HC), ODA heavy chain. Nature of the experiment: cross-linking.

B1: Shulin (Q22YU3), recombinant full-length, C-terminal 2xStrep (natural protein, Tetrahymena thermophila, UniProt Q22YU3 1-1200, looked up)
chain: MFNFFSSANINQNIPKYSVNDFVFRLKKIEKIVVKEGLDGFLLINGVDSRENTEYVKLTNWLFLGNSGLEIEENEYLNQIYSDMIVLIKKGTTHIFIDPEALNSLQTLIYSIPNVDVFCPTEKQYEDKDEMELLKMAFFLRVMKPTKKVGILLGQKDKGKINSIEKWPLIQSYGLEELGVGFFSMNHEVVDLTLRLNAVYKNYDKFFVSKLIYVVAKRLTGHFNSAAGQLGDMKMHKRNLATESQLTEIFRDTYEIEEISKWVQIRGVNAALPKPRVLFGKNTSADCSKEPSVAPLKDLKYSETFHSFHATFETFDLRTCLRAARTYFLAKGVKEERNLITLNDDEGVPQGYELNIDENQQYKDQDFLANLYLSIIIGFNEVMQLITKDYKNMTEEFIQDYIFQKVSKVYAGFQIPESEITLDKIQIILKAYNSFGEEVKIDFKDTISFKLTPYFFMVRIEQKNIKSQILNNTVLGSLVFAESFILQEGCYLLLTKEIPYFDLWNCQNDYSEKIEKMKKRILWEPLGKQISDELPKNRIFVQTGRKSNYGFDIPIMQASYYMHELGLRIETQRLGWFILFFKEMKEIQITQKMNHTWLIFKVDSNITFNSISKDTIALEFTGDALEQSFFKIKNYFEENQIKYEYQVDIPAIFQESQIAKKQILNQQSQGQKLITMNSIQNEQFFISYIESKQLMILNQMKDLKLSAYKNLYEQMQISQAITPVENHIGVILVNGSYCSGKRKFAENLIRFGSDNNLRLHLYKFDLNEMSELTEKSYLSGLLKFASEKKIQNTDVIVASVPHFINTKILIDYFSKSEKISNAFYIRTIATKININNIYSNFNKNPVNNVFTYGVEGYSQFLLLDTYNNYDADVNALNKTLSGVLPGAKIYKIMNNILNPALAKDILTSITFISEQNNLNRLKYSVQYDLLTSNGPSSVVFIPFKLPILREKIRDLIYKKILQNGNQTLVDTIEAEQKIAEFKELNKNSKDPLMIEIIKLKEKIEIQNAQTSDQAIKIDYVKGILRYDSKLKEGLEEITITPNYFIERTVKGVDAKEFTEELNGVSFKNVKYTGITNSIINDMGFVFAGKNLNKEKLLELLYKLVKPLNKQKLRQRKDLTEEEIVDIQFRNRGEGLENGEFYDGQFWRNIQGLILPHHPKKDEFIEEYLKQEEVRINQINEQLQQEWETWKQVYDKIHLDK
Regarding B1, the binding result in experiment [1] and in experiment [2] was “binds” in each case.

B2: Q22MS1, recombinant, C-terminal 2xStrep (natural protein, Tetrahymena thermophila, UniProt Q22MS1 1-1892, looked up)
chain: MFQSYLQDIEKENNSSIYNAQAQQNSSTQQSIWDDYIDRQLEHLVVEYQFDFDKIAQRLAGVIGDKQQQKVNFDTCRQRWKQLHLRRYEDKDKDRLDRVSKSVMKMEDPNNALKVQELVEKLPKARQNKDFLKISDEEKLQAFYLNDKGEKIQPTTFNVLKDSVMGIKDKTERERVFKKQQEEFFKSLEKLAGEQDEDMFTKPLIFRAKFTEPTNFNFIVEREELTREQAQRIMSQKVQIKGAGLVPPEPEMGIKMDNYVSMFARPDEEEEELKKKDQEKEVQVNQQIMQDQQETKEEQERDQEELKKQMELTEEEKKKQQEQEEEKKKINVDLYLAERGLKSIDEALNSLEKMRSKVKVNNYFEEAQTEDKKLKEQKEKNQQKVDNEDQIRQEIIKQGLEQLKQKEQGDQLVQFHENQIKKDIKELNEIIGDNKSKNVKNQTQQPNKAVEEEEEIILEKKNDQSKKVPTKKGIFSQFAEEEDSGSEDEVGNDEEELDDELYLQAQRIGLKSDAEIDLFITKKKEERKANMLNKKKVQFSEFSEQKQISEDTDELLAKQEKQIKQKQQFLEKLKKKSENEAGENDESNQEGSQNWRDLEFSAGMAFKRQLEEEKMQRMIKEQFEEEQRRKADQERIRQIQEEYHLKKLDIETKIKLREPLNLEKVNQEKWKEYIEAQQKRREEIEKEFEEKQRIQTEQEEKEQKENLIKEKIHFFEQKIKNFPSNDPFKCFFDDQVSYLSQISSLPSKITTKIADLKKYDISRDGITSRYQILIFPYLDKCQEFVFQFLSFFLRNSFFRQPPSEKELGEIVSENPLDEIPCQRLSSKGFPFCLVSFYIGSHTSEINDEQDEQYLSNYLNDAIKFDKLINDDKLQKSIYLFFDTYIGRGQDTLSKQLDLALTEFLSDGCLDQAIRKYGEKVINRDMKLSDFKTAYYKNMEIAKKLFNESNTFHSICPTKTSYHQTNQLAIHQNKKKQLLPTSPSNSPSIISHSHGNKWETSVIIIRNYSEIQNPSALRQQQNRGVDFSNASDLMQQDVTTEQYSNLSESLSNLVPSHTEISQRQKQQMTDVIHYTLNKLQEKGIQILGMKSFFFDQKTVQEFKSYVENINFNTNTNQPIVVISVAGFDLHSKLKKMVGSEDAQLAKRVEPNSLNALFSTGRDDSIIIPYNKALSRRLISYFFCGRLEKIQTVQDIQVIEGLTNKKQLYLTKPKPFNPVFLLNSQPIREHICLLSSKFLPQQFCEVIRKIQARGFELLNIRVIDSSNLSAILKKDEDFSAFIENENLQELNSGENDYERINLVLHIQGANISSLRNTLLNKIIDYNPFLHPSKREIFYYTKDDLSLTLLKDIFFNRHIKSNFTPSERFPLFIALWPFLNDYEEKEGLTASQAVPLGNDLKIMSSYGLELLSVSKIFKSQIQQKLNTSIEEETEHVDLKSILHQLIQNNIQINSITKKKPEFSTFCSRLGEEILSQDFYLAVFRYQGDRQSKHLDKLFTEVPFVHSNKTINESTVVTHGAKQTPHTQAKPLPTEFLTLFFLDSSAQQVSNFTKLLGIGAFDDWSFKGSFIFDLPSSGYTGEIETLIILSEDVVKTLLLVGLVKIIENNQFKIKSFFKHRCSREFSEVIQENLLQAFSGYESQMHDQGTKLQKIKASLDNLMTRLQGESMYFLVLSKENGIFNGKKILFELAEKYSVFKKETINVESSTEYMLDKGMYCSLNYKCQQREFKELQFMSQQILSMAHENNQEQQDVDKMYDNQLVMVIRIDQQIQLYEVFRKLQSDLKFKIIHFLVMRQFEWTDIQYISSHFTPKFEAQHIQKYFEINNDGIYCIVHLDSKNSVSLSDAFGTLRLNEKGEFKQVIRSSLFGKQEVFFIYTNNPQHVKKLSAYAFKSSE
Consider B2, for which the binding result in experiment [3] and in experiment [4] was “binds” each time.
